This is an account of results in the RNAGym collection of RNA variant scans (doi:10.7554/elife.80360).

The chains are these.
B1: Hairpin Ribozyme (parent)
chain: GUCCUCUUUCACGUGCGCGUGAAAGAGAGAAGUGAACCAGAGAAACACACGUUGUGGUAUAUUACCUGGUA

In this series the parent is B1. Kind of series: self-cleavage, relative activity (ratio to wild type); higher = more cleavage; co-transcriptional.
On to G27U A30C, for which the self-cleavage came out at 0.1.
Take G27U G56C: the self-cleavage amounted to 0.149.
The result for A28C C65G reads 0.229; that for G27U U60G, 0.0793; that for G27C C46A, 0.0983.
In the case of G27C C46G, the self-cleavage is 0.152.
As for G27A U58A, the figure is 0.176; as for A26U U63A, 0.127; as for G27A G69C, 0.198.
The result for G27C U60A reads 0.177; that for G27A A30C, 0.141; that for G27A A30G, 0.0562.
As for G27A A64U, the figure is 0.174.
Turning to G27A G42C, the self-cleavage is 0.145.
As for A26U U55C, the figure is 0.23; as for A26U U55G, 0.281; as for G27C A30G, 0.172.
In the case of G27A A28U, the self-cleavage stood at 0.393.
For the variant G27A C48U, the self-cleavage was 0.183.
The result for G27A C48A reads 0.178; that for A28C C38A, 0.205.
The result for G27U A45C reads 0.0886; that for G27U A45G, 0.131.
As for G27U A45U, the figure is 0.0868; as for G27A G29U, 0.126; as for G27A G57C, 0.184.
Regarding A26U U52G, the self-cleavage was found to be 0.442.
As for G27A A44C, the figure is 0.143; as for G27A A44U, 0.139; as for G27C A41U, 0.367.
In the case of G27C A41C, the self-cleavage was 0.228.
For G27U U55G, the self-cleavage was 0.224.
As for G27U U55C, the figure is 0.113.
The result for G27A A31U reads 0.153; that for G27A A31G, 0.221.
As for G27C U67C, the figure is 0.103.
As for G27A A43U, the self-cleavage stood at 0.052.
The result for A28C G32A reads 0.172; that for G27A U62A, 0.155; that for G27U C48G, 0.137.
Take A28C A35G: the self-cleavage turned out to be 0.445.
As for A28C A35U, the figure is 0.295.
As for A28C A35C, the figure is 0.864; as for A26U G54C, 0.305.
The result for A28C U58A reads 0.401; that for A28C U58G, 0.151.
As to G27U A43U, the self-cleavage is 0.106.
Consider G27A G68C, for which the self-cleavage is 0.215.
The result for G27A G68U reads 0.184.
As for A28C G40U, the figure is 0.101; as for A28C G40C, 0.0679.
The result for G27A U53G reads 0.518.
As for G27A U53C, the self-cleavage was determined as 0.64.
As for G27A C50U, the figure is 0.124; as for G27U U62C, 0.191.
For the variant G27U A28G, the self-cleavage is 0.119.
The result for A26U U67C reads 0.176.
The result for G27U A49U reads 0.141; that for G27U A41G, 0.305; that for G27U A41U, 0.554.
As for A28C C50G, the figure is 0.107; as for A28C C50A, 0.151; as for A28C G54U, 0.262.
As to A28C U53C, the self-cleavage worked out at 0.598.
As for G27C C38A, the figure is 0.116; as for G27C G54A, 0.133.
The result for A28C A47U reads 0.0267; that for A26U U58G, 0.631; that for G27A G34C, 0.945.
As for G27A G34U, the self-cleavage was found to be 1.3.
Turning to G27A C65U, the self-cleavage is 0.145.
As for G27A C65A, the figure is 0.396.
As to G27U U53G, the self-cleavage came out at 0.23.
The result for A28C A61C reads 0.122; that for G27C A44G, 0.21.
As for G27C A44U, the figure is 0.0991.
The result for G27U U33A reads 0.121; that for G27U U33C, 0.109; that for G27U G68A, 0.128.
For the variant G27C G56C, the self-cleavage was 0.134.
Turning to G27C U55C, the self-cleavage was 0.186.
As for A28C A36C, the figure is 0.32.
Regarding A28C A36U, the self-cleavage was found to be 0.302.
As for A28C A36G, the figure is 0.552; as for G27U C66G, 0.126.
As for G27U C66U, the figure is 0.288; as for G27C G69A, 0.0883; as for G27C A59U, 0.16.
As for G27U U70C, the figure is 0.105; as for G27U A44C, 0.0839.
Take G27U A44G: the self-cleavage amounted to 0.193.
As for G27A G40C, the figure is 0.104; as for G27C A47G, 0.125; as for A26U U53G, 0.489.
As for G27C G42C, the figure is 0.165; as for G27C G42A, 0.148.
The result for G27A A49G reads 0.237; that for G27A A49U, 0.112.
Regarding G27A A49C, the self-cleavage is 0.154.
With A28C U52G, the self-cleavage is 0.301.
Regarding G27C U58C, the self-cleavage was 0.214.
With G27C A39G, the self-cleavage is 0.0932.
For A28C A43G, the self-cleavage was determined as 0.129.
As for A28C U62A, the figure is 0.159; as for A28C A71C, 1.05.
For the variant A28C A71G, the self-cleavage came out at 0.457.
In the case of A28C A71U, the self-cleavage came to 0.291.
The result for G27A G51A reads 0.337.
The result for G27A G51U reads 0.458.
As for G27A U70G, the figure is 0.227.
Turning to G27A C38U, the self-cleavage stood at 0.2.
As for G27C U53G, the figure is 0.169; as for G27C U53A, 0.19.
As for A28C A44C, the figure is 0.134.
As for A28C A44G, the figure is 0.0991.
Turning to G27U U58C, the self-cleavage was 0.318.
The result for A28C A49C reads 0.119; that for G27A U52C, 0.477.
Take G27A U52G: the self-cleavage was 0.431.
As for G27C A71C, the figure is 0.53.
Consider A26U U33A, for which the self-cleavage stood at 0.148.
The result for A26U U33C reads 0.141; that for G27A G54C, 0.105; that for A28C C37A, 0.166.
As to G27A G32A, the self-cleavage turned out to be 0.0917.
As for G27A G32C, the figure is 0.226; as for G27U A64U, 0.129; as for G27U A64C, 0.173.
The result for G27U A35G reads 0.228; that for G27C G32U, 0.15.
As to A28C G69C, the self-cleavage worked out at 0.262.
As for A28C G69A, the figure is 0.168; as for G27C U70A, 0.319; as for G27C U70C, 0.132.
The result for G27A U60C reads 0.657.
As for G27A A71G, the figure is 0.545; as for G27A A39C, 0.2.
Regarding G27A U67C, the self-cleavage came out at 0.141.
The result for A28C A45C reads 0.0427.
The result for A26U G57C reads 0.123.
The result for A26U G57A reads 0.184; that for A28C A31C, 0.
As to G27U U67A, the self-cleavage was 0.177.
Take G27C C65U: the self-cleavage came to 0.159.
The result for G27A A61U reads 0.155; that for G27A C66A, 0.204.
As for G27A C37G, the figure is 0.15; as for G27C A45U, 0.202.
For the variant G27C A45G, the self-cleavage came out at 0.19.
A26U U62G: the self-cleavage is 0.141.
The result for G27C U63A reads 0.174; that for G27C U63C, 0.222.
As for G27U A71U, the figure is 0.166.
As for G27U A71G, the figure is 0.261.
For the variant G27A A47C, the self-cleavage is 0.214.
As for A28C U33C, the figure is 0.107.
As for G27C U62A, the figure is 0.205; as for A26U U60A, 0.328.
The result for G27C G40U reads 0.0774; that for G27U C46U, 0.12; that for G27U G51C, 0.158.
Consider G27C A61U, for which the self-cleavage came out at 0.119.
The result for A26U G69A reads 0.203; that for A28C C48U, 0.124; that for G27U A39C, 0.107.
For the variant G27U A39U, the self-cleavage worked out at 0.144.
As for A28C A41C, the figure is 0.625.
